Test results reported in patent US20170174740A1.

B1: Kv2.1 (wild-type voltage-dependent delayed-rectifier K+ channel, expressed in CHO cells) (protein)
chain: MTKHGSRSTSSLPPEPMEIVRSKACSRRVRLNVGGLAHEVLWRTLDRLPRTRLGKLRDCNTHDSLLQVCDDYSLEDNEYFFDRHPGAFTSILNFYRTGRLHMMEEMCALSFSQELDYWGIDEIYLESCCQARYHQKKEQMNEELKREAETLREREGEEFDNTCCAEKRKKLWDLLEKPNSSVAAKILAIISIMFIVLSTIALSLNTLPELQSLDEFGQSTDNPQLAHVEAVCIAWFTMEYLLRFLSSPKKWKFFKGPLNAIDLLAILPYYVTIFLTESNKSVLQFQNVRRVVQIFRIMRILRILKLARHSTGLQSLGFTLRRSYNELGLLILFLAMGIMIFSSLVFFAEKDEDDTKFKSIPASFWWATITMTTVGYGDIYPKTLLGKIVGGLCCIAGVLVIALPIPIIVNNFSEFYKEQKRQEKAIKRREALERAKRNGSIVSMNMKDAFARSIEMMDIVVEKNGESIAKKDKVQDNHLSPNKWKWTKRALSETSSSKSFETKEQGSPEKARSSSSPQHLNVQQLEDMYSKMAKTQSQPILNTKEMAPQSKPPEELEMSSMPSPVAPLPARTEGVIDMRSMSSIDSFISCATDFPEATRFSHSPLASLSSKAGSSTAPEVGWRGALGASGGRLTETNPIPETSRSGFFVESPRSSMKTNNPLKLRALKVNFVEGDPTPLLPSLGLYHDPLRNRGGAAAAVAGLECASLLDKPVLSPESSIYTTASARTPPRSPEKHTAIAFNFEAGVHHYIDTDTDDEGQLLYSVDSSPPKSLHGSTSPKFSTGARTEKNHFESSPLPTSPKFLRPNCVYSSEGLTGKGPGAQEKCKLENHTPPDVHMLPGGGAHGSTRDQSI

Key:
[1] = target: syntaxin (SNARE protein; expressed from a plasmid in CHO cells for co-immunoprecipitation); experiment: co-immunoprecipitation with anti-syntaxin from CHO cells expressing syntaxin and Kv2.1, no C1a segment; mean±SEM, n=3
Sequence of syntaxin (SNARE protein; expressed from a plasmid in CHO cells for co-immunoprecipitation) (Q16623 whole entry): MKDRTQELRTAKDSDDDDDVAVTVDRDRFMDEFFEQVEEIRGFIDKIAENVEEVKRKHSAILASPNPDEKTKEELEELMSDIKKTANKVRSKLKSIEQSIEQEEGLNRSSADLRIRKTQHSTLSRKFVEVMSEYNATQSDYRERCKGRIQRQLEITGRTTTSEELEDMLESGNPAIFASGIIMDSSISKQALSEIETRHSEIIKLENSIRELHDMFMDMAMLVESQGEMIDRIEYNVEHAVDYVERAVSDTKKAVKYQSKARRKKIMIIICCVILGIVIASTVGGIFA

[2] = target: syntaxin (SNARE protein; expressed from a plasmid in CHO cells for co-immunoprecipitation); experiment: co-immunoprecipitation with anti-syntaxin from CHO cells expressing syntaxin and Kv2.1 with C1a441-472 co-expressed as competitor; the ratio is Kv2.1 pulled down with syntaxin; mean±SEM, n=3

Row | Binder | ratio of Kv2.1 to syntaxin immunoblots [1] | ratio of Kv2.1 to syntaxin immunoblots [2]
1 | B1 | 0.24 | –
2 | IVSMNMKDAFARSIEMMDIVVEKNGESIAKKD [C1a441-472 (overlapping middle segment of C1a)] | – | 0.25
